Test results reported in patent US20200308270A1.
pKd: −log10 of the molar value.

What was measured:
[1] = target: human recombinant FcgammaR receptor CD32aH (human) (UniProt P12318); experiment: SPR (ProteOn), Mab captured via anti-human Fc, FcgammaR analyte
[2] = target: human recombinant FcgammaR receptor CD32bF (human) (UniProt P31994); experiment: as above

Chain of CAT-2200 wild-type lambda Mab (antibody) (heavy): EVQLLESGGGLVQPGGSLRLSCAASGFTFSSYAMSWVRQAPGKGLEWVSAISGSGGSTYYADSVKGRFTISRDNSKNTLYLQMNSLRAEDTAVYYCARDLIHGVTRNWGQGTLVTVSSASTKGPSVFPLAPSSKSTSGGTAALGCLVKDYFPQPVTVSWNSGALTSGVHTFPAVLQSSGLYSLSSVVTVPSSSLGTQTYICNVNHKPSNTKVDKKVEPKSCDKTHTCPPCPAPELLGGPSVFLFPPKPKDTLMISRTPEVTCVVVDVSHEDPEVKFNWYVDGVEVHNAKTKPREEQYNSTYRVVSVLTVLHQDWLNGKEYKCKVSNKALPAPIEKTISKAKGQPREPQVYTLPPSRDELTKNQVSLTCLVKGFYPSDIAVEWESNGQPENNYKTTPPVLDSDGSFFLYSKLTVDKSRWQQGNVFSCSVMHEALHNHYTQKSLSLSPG
Chain of CAT-2200 wild-type lambda Mab (antibody) (light): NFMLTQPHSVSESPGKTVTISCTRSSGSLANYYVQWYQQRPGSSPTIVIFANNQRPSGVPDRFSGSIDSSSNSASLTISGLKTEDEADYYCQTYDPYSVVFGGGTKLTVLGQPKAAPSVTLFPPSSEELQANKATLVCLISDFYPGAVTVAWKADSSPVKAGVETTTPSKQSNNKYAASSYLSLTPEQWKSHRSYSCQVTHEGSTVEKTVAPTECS
Chain of human recombinant FcgammaR receptor CD32aH (human) (P12318 34-217): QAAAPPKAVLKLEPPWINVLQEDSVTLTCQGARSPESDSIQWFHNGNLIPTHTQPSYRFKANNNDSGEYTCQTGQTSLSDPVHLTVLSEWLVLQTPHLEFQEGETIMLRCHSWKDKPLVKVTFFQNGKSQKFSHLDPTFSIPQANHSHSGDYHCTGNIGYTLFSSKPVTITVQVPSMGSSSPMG

pKd [1]: 6.15
pKd [2]: 5.54
Substance: CAT-2200 wild-type lambda Mab (antibody)
